Assay results as given in PMC12636746, “Structural Basis for TRF2-RAP1 Recruitment by EBNA1 at the EBV origin of replication” (Research Square, 2025).
Numbering of substitutions follows the chain as printed.

T1: EBNA1Δ90–325 3x (E495A D499A E500A) (Epstein-Barr virus, UniProt P03211 1-641, Δ90–325 | E495A | D499A | E500A)
T1 construct: also called 3x mutant EBNA1; source: E. coli, autoinduction medium, purified (Ni-NTA, Superdex 75); not shown: His6-SUMO, N-terminal, cleaved
T1 sequence: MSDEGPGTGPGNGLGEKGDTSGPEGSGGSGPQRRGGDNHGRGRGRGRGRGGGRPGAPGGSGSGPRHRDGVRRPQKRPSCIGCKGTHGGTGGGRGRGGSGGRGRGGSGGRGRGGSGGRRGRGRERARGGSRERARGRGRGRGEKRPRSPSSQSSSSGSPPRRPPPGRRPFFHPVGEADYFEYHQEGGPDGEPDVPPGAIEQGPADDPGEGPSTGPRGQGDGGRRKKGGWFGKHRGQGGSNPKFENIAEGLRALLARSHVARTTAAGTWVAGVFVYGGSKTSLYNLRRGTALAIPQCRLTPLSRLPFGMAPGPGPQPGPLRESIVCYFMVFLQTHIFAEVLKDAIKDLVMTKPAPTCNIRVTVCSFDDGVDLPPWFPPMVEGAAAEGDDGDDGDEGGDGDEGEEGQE

T2: full-length Rap1 (human, UniProt Q9NYB0 1-399)
T2 construct: also called TERF2IP; source: E. coli, autoinduction medium, purified (Ni-NTA, Superdex 75); not shown: His6-SUMO, N-terminal, cleaved
T2 sequence (looked up): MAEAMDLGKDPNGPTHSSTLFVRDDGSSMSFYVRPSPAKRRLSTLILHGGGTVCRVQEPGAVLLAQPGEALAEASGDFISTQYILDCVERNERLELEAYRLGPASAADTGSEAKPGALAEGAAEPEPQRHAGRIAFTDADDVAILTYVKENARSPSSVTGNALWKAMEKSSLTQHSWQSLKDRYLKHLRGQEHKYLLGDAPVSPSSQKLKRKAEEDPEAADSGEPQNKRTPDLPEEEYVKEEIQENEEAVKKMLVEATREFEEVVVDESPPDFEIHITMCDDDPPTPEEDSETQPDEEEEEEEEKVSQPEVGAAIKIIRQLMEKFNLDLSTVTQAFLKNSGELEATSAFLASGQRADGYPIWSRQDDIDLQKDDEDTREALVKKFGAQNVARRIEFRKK

T3: full-length TRF2 (UniProt Q15554 1-542)
T3 construct: also called TERF2; source: E. coli, autoinduction medium, purified (Ni-NTA, Superdex 75); not shown: His6-SUMO, N-terminal, cleaved
T3 sequence (looked up): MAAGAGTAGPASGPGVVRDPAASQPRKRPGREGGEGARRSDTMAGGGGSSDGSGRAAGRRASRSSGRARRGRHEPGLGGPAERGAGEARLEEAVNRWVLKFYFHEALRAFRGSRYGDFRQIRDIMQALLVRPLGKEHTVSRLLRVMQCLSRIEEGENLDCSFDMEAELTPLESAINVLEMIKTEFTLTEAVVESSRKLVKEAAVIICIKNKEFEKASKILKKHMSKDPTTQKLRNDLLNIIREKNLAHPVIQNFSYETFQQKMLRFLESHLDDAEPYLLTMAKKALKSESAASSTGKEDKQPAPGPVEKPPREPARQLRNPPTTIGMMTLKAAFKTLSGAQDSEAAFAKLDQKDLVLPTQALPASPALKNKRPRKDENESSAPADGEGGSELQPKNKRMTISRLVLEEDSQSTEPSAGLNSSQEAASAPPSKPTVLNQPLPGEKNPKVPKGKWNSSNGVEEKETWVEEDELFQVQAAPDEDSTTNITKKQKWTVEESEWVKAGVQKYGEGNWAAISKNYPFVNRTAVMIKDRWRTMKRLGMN

B1: pre-assembled full length TRF2/Rap1 complex (complex)
chain 1: T3 sequence (looked up)
chain 2: T2 sequence (looked up)
notes: source: E. coli, each protein purified; complex pre-assembled and purified by glycerol gradient; not shown: His6-SUMO, N-terminal, cleaved
B2: TRF2 homodimerization domain (TRFH), residues 85–287 of TRF2 (domain or fragment, UniProt Q15554 85-287, looked up)
chain: AGEARLEEAVNRWVLKFYFHEALRAFRGSRYGDFRQIRDIMQALLVRPLGKEHTVSRLLRVMQCLSRIEEGENLDCSFDMEAELTPLESAINVLEMIKTEFTLTEAVVESSRKLVKEAAVIICIKNKEFEKASKILKKHMSKDPTTQKLRNDLLNIIREKNLAHPVIQNFSYETFQQKMLRFLESHLDDAEPYLLTMAKKALK
notes: also called TRFH domain; TRF2 dimerization domain; source: E. coli (all constructs), purified
B3: EBNA1 459–607 (domain or fragment)
chain: RKKGGWFGKHRGQGGSNPKFENIAEGLRALLARSHVERTTDEGTWVAGVFVYGGSKTSLYNLRRGTALAIPQCRLTPLSRLPFGMAPGPGPQPGPLRESIVCYFMVFLQTHIFAEVLKDAIKDLVMTKPAPTCNIRVTVCSFDDGVDLP
notes: also called shorter EBNA1 459–607; core structured DBD; source: E. coli (all constructs), purified
B4: EBNA1 DNA binding domain (DBD) aa 401–607 (domain or fragment)
chain: GRRPFFHPVGEADYFEYHQEGGPDGEPDVPPGAIEQGPADDPGEGPSTGPRGQGDGGRRKKGGWFGKHRGQGGSNPKFENIAEGLRALLARSHVERTTDEGTWVAGVFVYGGSKTSLYNLRRGTALAIPQCRLTPLSRLPFGMAPGPGPQPGPLRESIVCYFMVFLQTHIFAEVLKDAIKDLVMTKPAPTCNIRVTVCSFDDGVDLP
notes: also called EBNA1 DBD; EBNA1(401–607); source: E. coli, autoinduction medium, purified (Ni-NTA, Superdex 75); not shown: His6-SUMO, N-terminal, cleaved
B5: EBNA1ΔGA (Δ90–325), wild type (natural protein)
chain: T1 sequence with A259E, A263D, A264E
notes: also called WT EBNA1; "full-length" EBNA1; source: E. coli, autoinduction medium, purified (Ni-NTA, Superdex 75); not shown: His6-SUMO, N-terminal, cleaved

What was measured:
Conditions in all cases: both partners purified
[1] = target: T1, EBNA1Δ90–325 3x (E495A D499A E500A); assay: native gel or EMSA; pre-assembled TRF2-Rap1 complex (glycerol gradient) serially diluted onto pre-assembled ½DS-EBNA1 complex (10X stock 200 nM EBNA1, 50 nM ½DS DNA); binding buffer with 300 mM KCl; 1.4% agarose gel
[2] = target: B4; assay: native gel or EMSA; TRFH domain added to the ½DS-EBNA1 complex; binding buffer lowered to 100 mM KCl, highest TRFH 10 μM (1000-fold excess); under standard conditions only a weak supershift
[3] = target: B2; assay: as above
[4] = target: T2, full-length Rap1; assay: native gel or EMSA; EBNA1 DBD pre-formed on the 60 bp ½DS DNA probe (5 nM, IRD700), TRF2 and then Rap1 added; 10 mM HEPES pH 7.5, 300 mM KCl, 5 mM MgCl2, 1 mM ZnCl2, 5 mM BME, 0.05% NP-40, 5% glycerol; 1.4% agarose gel
[5] = target: T3, full-length TRF2; assay: as above
[6] = target: B1; assay: native gel or EMSA; pre-assembled TRF2-Rap1 complex (glycerol gradient) serially diluted onto pre-assembled ½DS-EBNA1 complex (10X stock 200 nM EBNA1, 50 nM ½DS DNA); binding buffer with 300 mM KCl; 1.4% agarose gel

B1
fold weaker than with WT EBNA1 [1]: ~2 fold

B2
binding result [2]: binds

B3
binding result [3]: binds

B4
binding result [4]: binds
binding result [5]: binds

B5
binding result [6]: binds
